In this assay the target is amyloid-β 1-42 fibers (fAβ42) (human) (UniProt P05067). The experiment in a line: cell-based or functional assay.
amyloid-β 1-42 fibers (fAβ42) (human), sequence (P05067 672-713 limits assumed): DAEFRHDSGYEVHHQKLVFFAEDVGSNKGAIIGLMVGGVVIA

The substance “M13 filamentous bacteriophage, Construct 2 (wild type M13 isolate, GenBank JX412914.1)” yielded a filter trap assay, concentration that reduces aggregates to a similar level of 1.7 nM.

The values above are taken from US20140335016A1.
